Positions count from the first letter of the chain named.
B1: MDT-2007 (composite human antibody sequence variant VH4/VK2) (antibody, V domains shown)
VH: QVQLVQSGAEVKKPGASVKVSCTASGFNIKDTYIHWVRQARGQRLEWIGRFDPVNVNTRYDSRFRGRVTITSDASTNTAYMELSSLRSEDTAVYYCSRSYYNGRRRFTYWGQGTLVTVSS
VL: DIVMTQSPSSLTASVGDRVTITCKASQSLLSSGNQKNYLTWYQQKPGQPPKLLIYWASIRESGVPDRFTGSGSGTFFTLTISSLQAEDVAVYYCQNDYNYPFTFGQGTKLEIK
notes: Human IgG1/kappa (pANT15/pANT13)
B2: composite human antibody variant VH1/VK1 (antibody, human IgG1, V domains shown)
VH: B1 VH with Q1E, V11L, R41P, V68A
VL: B1 VL with S9D, A13V, V15L, D17E, V19A, T22N
notes: Human IgG1/kappa (pANT15/pANT13); Tested as quantified NS0 supernatant
B3: composite human antibody variant VH1/VK3 (antibody, human IgG1, V domains shown)
VH: B1 VH with Q1E, V11L, R41P, V68A
VL: B1 VL with T69S, F76D
notes: as for B2
B4: composite human antibody variant VH2/VK2 (antibody, human IgG1, V domains shown)
VH: B1 VH with Q1E, V68A
VL: B1 VL
notes: as for B2
B5: composite human antibody variant VH2/VK3 (antibody, human IgG1, V domains shown)
VH: B1 VH with Q1E, V68A
VL: B1 VL with T69S, F76D
notes: as for B2
B6: composite human antibody variant VH3/VK3 (antibody, human IgG1, V domains shown)
VH: B1 VH with V68A
VL: B1 VL with T69S, F76D
notes: as for B2
B7: composite human antibody variant VH4/VK1 (antibody, human IgG1, V domains shown)
VH: B1 VH
VL: B1 VL with S9D, A13V, V15L, D17E, V19A, T22N
notes: as for B1
B8: composite human antibody variant VH4/VK3 (antibody, human IgG1, V domains shown)
VH: B1 VH
VL: B1 VL with T69S, F76D
notes: as for B2
B9: composite human antibody variant VH5/VK1 (antibody, human IgG1, V domains shown)
VH: B1 VH with N77S
VL: B1 VL with S9D, A13V, V15L, D17E, V19A, T22N
notes: as for B1
B10: composite human antibody variant VH5/VK2 (antibody, human IgG1, V domains shown)
VH: B1 VH with N77S
VL: B1 VL
notes: as for B1
B11: composite human antibody variant VH5/VK3 (antibody, human IgG1, V domains shown)
VH: B1 VH with N77S
VL: B1 VL with T69S, F76D
notes: as for B2
B12: chimeric 6E10 antibody (mouse 6E10 V regions, human IgG1/kappa constant regions) (antibody, V domains shown)
VH: EVQLQQSGAELVKPGASVKLSCTASGFNIKDTYIHWVKQRPEQGLEWIGRFDPVNVNTRYDSRFRGKATITSDASSNTAYLHLNSLTSEDTAVYYCSRSYYNGRRRFTYWGQGTLVTVSA
VL: B1 VL with A13V, S14T, V15A, D17E, R18K, T20A, I21L, L84V, V89L, Q106S
notes: also called chimeric mouse 6E10 antibody; chimeric antibody
B13: PSA-conjugated 6E10 IgG anti-Aβ antibody (antibody, V domains shown)
VH: B12 VH
VL: B1 VL with A13V, S14T, V15A, D17E, R18K, T20A, I21L, L84V, V89L, Q106S
modifications: polysialic acid (PSA) conjugated; site and chain not stated; polysialic acid (PSA, 30 to 90 sialic acid units) conjugated by periodate oxidation and sodium cyanoborohydride; site and chain not stated
notes: also called PSA-conjugated IgG anti-Aβ; conjugated IgG antibodies

How the values were obtained:
[1] = target: T1, Abeta42 beta amyloid peptide (UniProt P05067 672-713); assay: competition ELISA on coated beta amyloid, purified antibody (Table 4 experiment)
T1 construct: domain: Abeta42; also called Aβ42; beta amyloid (Covance)
Description: (§1) Binding of humanized variants were tested in the competition binding ELISA described in Example 1. Briefly, supernatants from the best expressing lines for each combination were quantified using an Fc capture, Kappa light chain detection ELISA in comparison to a IgG1/kappa standard. The quantified supernatants were then tested in a competition ELISA for binding to their target antigen, beta amyloid. 96 well maxisorb plates (Nunc-Fisher Scientific, Loughborough, UK) were coated overnight at 4° C. with 50 μl/well of 0.06125 μg/ml beta amyloid (Covance, UK) in carbonate buffer pH 9.6. […] The titrations, 50 μl/well, were added to washed (3× with PBS pH 7.4/0.5%BSA/0.05% Tween 20) assay plates and incubated at room temperature for 1 hour. […] After stopping the reaction with 50 μl/well 3M HCl, absorbance was measured at 450 nm and the binding curves of the test antibodies were compared to the mouse reference standard. Absorbance was plotted against sample concentration and straight lines were fitted through each of the data sets.
The purified antibodies were tested for binding to beta amyloid via competition ELISA as described above (n=2). […] Absorbance at 450 nm was measured and this was plotted against test antibody concentration.

[2] = target: T1, Abeta42 beta amyloid peptide; assay: competition ELISA on coated beta amyloid, NS0 supernatant; competitor biotinylated mouse 6E10
Description: 100 μl of the antibody mixes were transferred into the wells of Immulon Maxisorb plates precoated with 0.06125 μg/ml Abeta₄₂ beta amyloid peptide coated plates and incubated at room temperature for 1 hour. The plate was washed, and bound biotinylated mouse 6E10 was detected by adding a strepavidin-HRP conjugate (Sigma, Poole UK) (diluted at 1:500) and OPD substrate (Sigma, Poole UK). The assay was developed in the dark for 5 minutes before being stopped by the addition of 3M HCl. The assay plate was then read in a MRX TCII plate reader at absorbance 490 nm.
as §1, with “hour. Plates were washed as above and 100 μl/well of a 1/500 dilution of streptavidin HRP (Sigma, Poole, UK) in PBS pH 7.4/0.5% BSA/0.05% Tween was added and incubated for a further 1 hour at room temperature.” for “hour.”

[3] = target: T1, Abeta42 beta amyloid peptide; assay: competition ELISA on coated beta amyloid, purified antibody, n=2; competitor biotinylated chimeric mouse 6E10
Description: as §1, with “hour. Plates were washed as above and 100 μl/well of a 1/500 dilution of streptavidin HRP (Sigma, Poole, UK) in PBS pH 7.4/0.5% BSA/0.05% Tween was added and incubated for a further 1 hour at room temperature.” for “hour.”
The purified antibodies were tested for binding to beta amyloid via competition ELISA as described above (n=2). Titrations of the test antibodies were done from 0.003 μg/ml to 16 μg/ml in duplicate. Absorbance at 450 nm was measured and this was plotted against test antibody concentration.

Aβ40 peptide = target: T2, Aβ40 peptide (UniProt P05067 672-711); assay: western immunoblot of Aβ40 peptide, antibody at 1000-fold dilution
T2 construct: domain: Aβ40; also called amyloid beta
Description: (§2) The resulting conjugated antibodies (IgG and F(ab)₂ fragments) were subjected to dialysis to separate conjugated from unconjugated antibodies. The conjugated IgG antibodies were tested for their ability to bind amyloid beta (Aβ40 and Aβ42), using a western immunoblotting assay. In brief, Aβ40 or Aβ42 peptides (0.5 μg in diluent; Covance) were diluted in 4 μl nanopure water and prepared with 2× sample buffer to run through 4-20% Pierce Precise Protein Gel at 55V for 15 min, and then at 100V for 55 min. The proteins were then transferred onto 0.2 μm nitrocellulose membrane at 6V for 30 min. The membrane was blocked with a solution of dried milk powder (5% in Tris-buffered saline with Tween20; TBST, 1 L distilled water, 8 g NaCl, 2.4 g Tris, pH 7.5 with HCl, 1 mL Tween20). Membranes were then incubated overnight with a 1000-fold dilution of unconjugated or PSA-conjugated 6E10 IgG or F(ab′)₂ preparations, washed thrice with TBST for 5 min each, incubated with 1:2000 dilution of HRP-conjugated goat anti-mouse secondary antibody, and washed twice again with TBST for 10 min each. The chemiluminescent signal was developed with ECL-Plus reagent and the membranes were exposed to Kodak films to illustrate the bands.

[4] = target: T1, Abeta42 beta amyloid peptide; assay: western immunoblot of Aβ42 peptide, antibody at 1000-fold dilution
Description: as §2

T1 sequence (P05067 672-713 limits assumed): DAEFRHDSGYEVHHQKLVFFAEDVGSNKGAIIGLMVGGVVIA
T2 sequence (P05067 672-711 limits assumed): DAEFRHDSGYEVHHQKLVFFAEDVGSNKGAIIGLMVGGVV

Row | Binder | fold difference in IC50 relative to mouse 6E10 (Binding Efficiencies Relative to Mouse MDT-2007) [2] [fold] | Fold Difference (IC50 normalized to the reference) [3] [fold] | IC50 [3] [µg/mL] | also measured
1 | B1 | 0.67 | 0.57 | 2.1 | fold increase in binding compared to the mouse reference [1]: 1.72 fold
2 | B2 | 0.78 |  |  | 
3 | B3 | 1.93 |  |  | 
4 | B4 | 1.1 |  |  | 
5 | B5 | 0.96 |  |  | 
6 | B6 | 1.57 |  |  | 
7 | B7 | 0.94 | 1.14 | 4.1 | 
8 | B8 | 1.36 |  |  | 
9 | B9 | 0.8 | 0.91 | 3.3 | 
10 | B10 | 0.72 | 0.72 | 2.6 | 
11 | B11 | 1.02 |  |  | 
12 | B12 |  | 1 | 3.6 | 
13 | B13 |  |  |  | binding result (Aβ40 peptide): binds; binding result [4]: binds

— patent US20110202000A1 (MEDTRONIC, published 2011)
